According to article PMC3059592 (Virology, 2010):
Where “and” joins values, the source holds several entries; their conditions need not be identical. Identical values can stand only once.

Target: the molecule itself
Assay: sucrose density gradient centrifugation

B1: PIV-5 hemagglutinin-neuraminidase (HN) protein, mutant E37D (natural protein)
chain: MVAEDAPVRATCRVLFRTTTLIFLCTLLALSISILYDSLITQKQIMSQAGSTGSNSGLGSITDLLNNILSVANQIIYNSAVALPLQLDTLESTLLTAIKSLQTSDKLEQNCSWSAALINDNRYINGINQFYFSIAEGRNLTLGPLLNMPSFIPTATTPEGCTRIPSFSLTKTHWCYTHNVILNGCQDHVSSNQFVSMGIIEPTSAGFPFFRTLKTLYLSDGVNRKSCSISTVPGGCMMYCFVSTQPERDDYFSAAPPEQRIIIMYYNDTIVERIINPPGVLDVWATLNPGTGSGVYYLGWVLFPIYGGVIKGTSLWNNQANKYFIPQMVAALCSQNQATQVQNAKSSYYSSWFGNRMIQSGILACPLRQDLTNECLVLPFSNDQVLMGAEGRLYMYGDSVYYYQRSNSWWPMTMLYKVTITFTNGQPSAISAQNVPTQQVPRPGTGDCSATNRCPGFCLTGVYADAWLLTNPSSTSTFGSEATFTGSYLNTATQRINPTMYIANNTQIISSQQFGSSGQEAAYGHTTCFRDTGSVMVYCIYIIELSSSLLGQFQIVPFIRQVTLS
  stoichiometry N: 2 and 4
